Legend:
[1] = target: human mesothelin (MSLN) on the cell surface (human) (UniProt Q13421); assay: FACS on MSLN stable cell line (#2), right panels; sheet note: 1st Ab 0.36 µg (2nd assay), 2nd Ab anti-human Fc antibody FITC
[2] = target: human mesothelin (MSLN) on the cell surface (human) (UniProt Q13421); assay: FACS on MSLN stable cell line (#2), left panels; sheet note: 1st Ab 1 µg (1st assay), 2nd Ab anti-human Fc antibody FITC
[3] = target: human mesothelin (MSLN) on the cell surface (human) (UniProt Q13421); assay: FACS on MiaPaCa-MSLN #2 cells, upper histogram and table
[4] = target: human mesothelin (MSLN) on the cell surface (human) (UniProt Q13421); assay: FACS on MiaPaCa-MSLN #2 cells, upper histogram and table; negative control
[5] = target: human mesothelin (MSLN) on the cell surface (human) (UniProt Q13421); assay: FACS on MSLN stable cell line (#2), left panels; negative control; sheet note: 1st Ab 1 µg (1st assay), 2nd Ab anti-human Fc antibody FITC
[6] = target: human mesothelin (MSLN) on the cell surface (human) (UniProt Q13421); assay: FACS on MSLN stable cell line (#2), right panels; negative control; sheet note: 1st Ab 0.36 µg (2nd assay), 2nd Ab anti-human Fc antibody FITC

Chain of human mesothelin (MSLN) on the cell surface (human) (Q13421 other isoform, or with tags, fused parts or gaps limits assumed): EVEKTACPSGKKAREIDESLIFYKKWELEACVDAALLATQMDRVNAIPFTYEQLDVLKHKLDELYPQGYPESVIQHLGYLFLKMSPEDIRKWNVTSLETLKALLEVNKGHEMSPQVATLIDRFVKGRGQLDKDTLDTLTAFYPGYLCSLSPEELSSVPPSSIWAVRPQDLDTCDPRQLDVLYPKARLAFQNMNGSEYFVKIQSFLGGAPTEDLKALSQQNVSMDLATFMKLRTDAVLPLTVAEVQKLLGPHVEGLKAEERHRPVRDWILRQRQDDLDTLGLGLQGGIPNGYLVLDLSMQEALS

| Mean, FL1-H [1] | Mean, FL1-H [2] | Mean, FL2-H [3] | Mean, FL2-H [4] | Mean, FL1-H [5] | Mean, FL1-H [6] | Substance |
| --- | --- | --- | --- | --- | --- | --- |
| 263 | 515 | 3190 |  |  |  | Morab (antibody) |
|  |  |  | 8.6 | 3.36 | 4.81 | hIgG (antibody) |
